Assay results published in the domain aggregation screens of Martell et al. (2025).

Assay: soluble fraction after stress (log2 fold change); higher = more stays soluble; pooled small domains, quantitative proteomics
Details: stress: 50 degC
Summary of the method: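 Pooled custom libraries of small protein domains were measured in a high-throughput format, with quantitative proteomics as the read-out. Each library was stressed at 50°C. Aggregation propensity is given as the base-two logarithm of the fold change in how much of each protein stays soluble after the stress. Higher values mean a larger share of the protein remains in solution.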

**Q.** With “HMKQPNFTVIETKILELLFQKDLSSREMQEILKISKDNLIFALQNLLEQEKIVLQTSNTYTVN” as the sequence, how does the “soluble fraction (log2)” value read?
**A.** Its value is -1.15.

**Q.** For “HMGEQYYVLIDNKQNGPHNINAIQKMIDQNIVNRQTLIWKKGMTDWGNIMDDKDLKEMVNKIP”, which “soluble fraction (log2)” value is on record?
**A.** The value was -0.0562.

**Q.** Which “soluble fraction (log2)” value does the source give for “HMTYNEYPEKEMQDLIDKSISQQEQAASQYGYSLGDYVTARYGFQSESDFREYVQGLAEDYMKEKI” here?
**A.** The value was -0.198.

**Q.** For “HMGDFLLQVDFPPALLEMLPEGKRQAAIGVLSHDPRPAYQRTPGRVYGLNFAGHNIRFAVSENLLTVLEV”, which “soluble fraction (log2)” value is on record?
**A.** Its value is -2.08.

**Q.** Which “soluble fraction (log2)” value does the source give for “HMGDFLLTPHRGRSADFVIGNPPYIRLEDVPNDISDAYRAEYASMPGRADIHVGFYEKGLDL” here?
**A.** Its value is -0.142.

**Q.** Which “soluble fraction (log2)” value does the source give for “HMVDGTPALTDLKKVSKPGRRHYTGSQEIPRVLNGLGISIVSTSKGIMTGAQARRQKVGGELLAFV” here?
**A.** Its value is 0.16.

**Q.** With “HMSKPVFQTHSVRSADSATVFDVLQTLLAGTPDARIAIDPKTNAIVAWARPETQEVIAKSIMEMEG” as the sequence, how does the “soluble fraction (log2)” value read?
**A.** Its value is 0.0132.

**Q.** With “HMEYLIENYGSVINQARMKKGMTQEQLSSKTGVSQAYIRSIESQNMKPTDAVARKIEFELGIKLFE” as the sequence, how does the “soluble fraction (log2)” value read?
**A.** Its value is -0.0273.

**Q.** With “HMDNWLSGLAVEADRMILTQPGEVFDRLSRAFEATLIRRALASTGGRRIEAAHLLGIGRNTITRKIQDLGL” as the sequence, how does the “soluble fraction (log2)” value read?
**A.** Its value is -2.49.

**Q.** With “HMDFEEGAVKWFNTKKGYGFITRDQGDDIFVHFRNIKAQSRRSLTDGERVTFVVTEGDKGLQADHVSPV” as the sequence, how does the “soluble fraction (log2)” value read?
**A.** Its value is -0.31.

**Q.** For “HMEKSLKELAQGVGQKVLTSGRPYHFDPMSAMERRVVHMTLMEMDGLRTESEGEGRFRHVVVFPA”, which “soluble fraction (log2)” value is on record?
**A.** The value was -0.184.

**Q.** With “HMSTSEQVYTTDKVNVRREADTSSEKLGSLEKGTAISRTGTEGEWSVVNYGGVTGYIKTEFLTTEQPQ” as the sequence, how does the “soluble fraction (log2)” value read?
**A.** Its value is 0.132.

**Q.** With “HMEMDITIQMRTLVEELNRASDAYYNGRGELMTDYEWDAKFDQLKQLESQSGVVLPDSPTHRV” as the sequence, how does the “soluble fraction (log2)” value read?
**A.** The value was -0.162.

**Q.** Which “soluble fraction (log2)” value does the source give for “HMAEPYDEDKVMEHLYIKGKDVVIAHLKHLKEHNEHVWLKKGVEWMQKNQDRLGFDMMEVIYVVHNH” here?
**A.** The value was -0.0166.

**Q.** For “HMEFGEVLAQLRQKRHISQAELGRAIFVSGGTISNYEKGVHFPDVEKLLLLADYFNVTTDYLLGRT”, which “soluble fraction (log2)” value is on record?
**A.** The value was -2.04.

**Q.** For “HMGNIKVPSVMGMTLEGAEKVAKDNGAVIEVLEYKESTEEDGTIIEQSPKADMTVATLEKISVVISGK”, which “soluble fraction (log2)” value is on record?
**A.** The value was -0.105.

**Q.** Which “soluble fraction (log2)” value does the source give for “HMVSTEDEISDKLLLDFALEKLSENEKQIVKLRYYNSLTQSKTAEILNMTQVQVSRSEKKILAKLRGII” here?
**A.** Its value is -0.267.

**Q.** With “HMVANDQILNQYGISDREAEIIGLLIEGLSNQQIAKQLYISPNTVKTHIKNIYAKVGVNNRLQLFSLLK” as the sequence, how does the “soluble fraction (log2)” value read?
**A.** Its value is -0.173.

**Q.** With “HMAPEKLVHELVGLSLRAGNLDLLAATLSAHKTVLSKESTAEYVKAGLAIEPNHLPLRVLAEQDLGWS” as the sequence, how does the “soluble fraction (log2)” value read?
**A.** Its value is -0.57.

**Q.** For “HMVSVEELLSSLDPNEATVLKLLAERSSGVDELMERSGLDFSALSEAITNLELFGYIAREMDGVYSFS”, which “soluble fraction (log2)” value is on record?
**A.** Its value is -0.559.

**Q.** Which “soluble fraction (log2)” value does the source give for “HMKIKKIWFDGDYIYGMDERNNTYRQSLLWYSKLRNASAEERERYTFSTIGIHWRELDEDVSFESF” here?
**A.** Its value is -3.14.

**Q.** For “HMHEAILNQIRNEELMLYIGELSDAQQDVILLKYFHQMTFKEIAESFSIPISTVKTRHTAALKKLSTLWK”, which “soluble fraction (log2)” value is on record?
**A.** The value was -0.16.

**Q.** With “HMNETLKQIRINALQYSEKDMATKLGLPLSEYKEIENDKPLNFTLLIRLSQAVGKTIDDLLNAQ” as the sequence, how does the “soluble fraction (log2)” value read?
**A.** The value was 0.0115.

**Q.** With “HMEIDFDKINSIFNDANKLYEEGDYFEANNLYKNIVSSNIISKDLYYNLGLSYAKIGSNGYAILWYERALN” as the sequence, how does the “soluble fraction (log2)” value read?
**A.** Its value is -0.189.

**Q.** For “HMDAQEAAWARKMMETLPEKQKLSVALRIEEGLSFKEIGEIIGSSEGAARVNYFHGIRRLRELL”, which “soluble fraction (log2)” value is on record?
**A.** The value was -0.688.

**Q.** For “HMEYYWHQLKGLEVVNTRGESLGRVRRLLETGANDVLVLEGEQERLIPYVPDTIKQVDLAKGLIEVAWDRD”, which “soluble fraction (log2)” value is on record?
**A.** The value was -0.0728.

**Q.** Which “soluble fraction (log2)” value does the source give for “HMRPYAYGTGRRKSSTARVHLIPNGSGSITINGRTLDEYFGLETLKLIVRQPLAATETAEKFDVEATVV” here?
**A.** Its value is -0.415.

**Q.** With “HMETADREILLREIREIINERVDYNKDITDDEMKELVMNTVFERSRQQYMSIQDKQEIIQAIFNSMR” as the sequence, how does the “soluble fraction (log2)” value read?
**A.** The value was 0.126.

**Q.** With “HMKNDNIHMMASKINGIALEVGVLTPGMHPKNDLSEGEVGYIVTNLKTTREAKVGDTVTLAKKPAATPLPG” as the sequence, how does the “soluble fraction (log2)” value read?
**A.** Its value is 0.254.

**Q.** With “HMGYDDLEPFDANGRLRWSDQELVLAFGRHRGATLRTLELNDPSYLRWLLSGNGPLEQQDIQRLEQILES” as the sequence, how does the “soluble fraction (log2)” value read?
**A.** The value was -1.26.

**Q.** Which “soluble fraction (log2)” value does the source give for “HMKVQEVDYGTFLTMVDEGKVNQVDIENSKQITFNTKGDKNKVYITGQVNDPELVNRLYKAGVEFSQEIP” here?
**A.** The value was 0.0729.

**Q.** With “HMAMTRTEYLNQLKHYLKRLPHTDYEEAMDYFKEYFEEAGPENEAQVIQDLGNPKEAAYEILSQLL” as the sequence, how does the “soluble fraction (log2)” value read?
**A.** The value was -0.253.

**Q.** For “HMEYSKSIKRLREDKNLTVEELAKRLSLDVEEIQKAEDGEDVDQKTLEAIARYFGVQYDSLVEGTAKSK”, which “soluble fraction (log2)” value is on record?
**A.** The value was 0.0998.

**Q.** With “HMEISPGDVFKQLPGIGDDLSRRVVESLGIQSLEELESAAHDGRLEQVEGFGERRVQMVRAVLTGMLS” as the sequence, how does the “soluble fraction (log2)” value read?
**A.** Its value is -0.0423.

**Q.** With “HMKIIDDIQEFAGVTKTQNTFFHIFNHLHQNGKQLILTSDRAPVMLQGMEERLLTRFKWGLVAELE” as the sequence, how does the “soluble fraction (log2)” value read?
**A.** Its value is 0.257.

**Q.** Which “soluble fraction (log2)” value does the source give for “HMIESLKGILHKKDPTIAIIDVGGVRLSVNITLSTYEKLEEINSSIELLTYFNVREDAMELYG” here?
**A.** Its value is -0.157.

**Q.** Which “soluble fraction (log2)” value does the source give for “HMKQNVEAVIKERAIEKARAQVKAVSTHMALEAQSLSKEQLEFEIERIAAQIIDKMPSDFWND” here?
**A.** The value was -0.386.

**Q.** Which “soluble fraction (log2)” value does the source give for “HMNTGTTISYSDFRDRVASGTVKEVQISDDRITGVLKNDETFNTVPVGNDSGLTKLLDDNGVTYSGTP” here?
**A.** The value was 0.174.

**Q.** For “HMPHFFISTSDVNQDIITVSDKENFHHIARVLRSKVGETLLLVDENRTQYKVVIQNIDSKSITTKVVETLK”, which “soluble fraction (log2)” value is on record?
**A.** The value was -0.138.

**Q.** With “HMYYSERILTILEERGISPYRVSKETGISQSVFSNWKRKPTSRITAANLERLADYLGLPVEVLTG” as the sequence, how does the “soluble fraction (log2)” value read?
**A.** Its value is -3.45.

**Q.** With “HMGDSVLNDKLNTLAGLDEERFKWVLASLNPNNSYSTHSDKMSALMWLVSYFNDEADLKETVPPLPI” as the sequence, how does the “soluble fraction (log2)” value read?
**A.** Its value is -0.0724.

**Q.** For “HMDLHERISSVLLGTGKSNDELAQILGVNKNTISAYKNKHGDLKGIVLEGIVKHFDINPVWLLTGSGTR”, which “soluble fraction (log2)” value is on record?
**A.** The value was -0.54.

**Q.** With “HMSSTSTMTVAEATIGRKVKHDKFGEGTIITVADVNGDKKLTIAFNQQGVKMLMLSMAKLEL” as the sequence, how does the “soluble fraction (log2)” value read?
**A.** The value was -1.03.

**Q.** For “HMEEAQWEFKWENTDSAEIHGPHSSSEMLKWQENSFFAKGVYVRKVGGDTTDFTDGKRIDFDLY”, which “soluble fraction (log2)” value is on record?
**A.** Its value is -0.822.

**Q.** Which “soluble fraction (log2)” value does the source give for “HMADEEEIMVPQVVGKTYDEAKSELENAGFKVEKNEKTSDKASGTVISQSINGGAKKGTSVTLTVSKGN” here?
**A.** The value was 0.149.

**Q.** Which “soluble fraction (log2)” value does the source give for “HMIGDYALILNIKGGSDWYLGNRVELLFTDGTSKIVTTDKDYNAKKDMVPTQIVTYKVNDNGEYSLKALPT” here?
**A.** Its value is -2.01.

**Q.** Which “soluble fraction (log2)” value does the source give for “HMIGIGSDVPNKLKPAIYSFGLVAVGEKSVIPDGVQIGKNTAVSGVTSKEDYPDGVLESGETLIKA” here?
**A.** The value was 0.0103.

**Q.** Which “soluble fraction (log2)” value does the source give for “HMHKYQVGETVYYTSPTFGRAAATGSYIVVKLLPSEGDDYQYRIKSSGEAFERVAKESQLDR” here?
**A.** Its value is -0.734.

**Q.** With “HMIISMKKGATPQEISHVRKLIEELGYKVHESQGSERMVFGAIGDERSKHRLTSLEAQPGVEKVIPILA” as the sequence, how does the “soluble fraction (log2)” value read?
**A.** Its value is 0.191.

**Q.** With “HMSDFSSNLRRLRKRAGLSQDALAEKLSVARQTVSSWERGNSYPDLDMLVRISDALATDPNELLYPN” as the sequence, how does the “soluble fraction (log2)” value read?
**A.** The value was -0.00275.

**Q.** With “HMDSGFMRTTQSYTVARLAEIFRLSGEDYLAVLREYDGWYQDLTSTKDLIRKGSDVPVPEGV” as the sequence, how does the “soluble fraction (log2)” value read?
**A.** The value was -1.61.

**Q.** For “HMDTRKKLEQIFKLFDKTGTGMVNIDEFKSVLKLFMEEIDEKFGNYFIAYFDENGDGKIEFEEFADVVL”, which “soluble fraction (log2)” value is on record?
**A.** Its value is -0.0635.

**Q.** With “HMRALPFSFANRHGVLIREISDGVAHAVYRIGSSPLGLAEARRFVGMPLMLTPVAREAFDSLLQQTYEQG” as the sequence, how does the “soluble fraction (log2)” value read?
**A.** Its value is -1.6.

**Q.** For “HMAEKRTAIITTARADIRQKPEATAPLAFEAVKDVVLELTDKPADGWVRVKHRDGSTGYIRINQI”, which “soluble fraction (log2)” value is on record?
**A.** The value was 0.0711.

**Q.** With “HMYEDIDSAYRILEINSTVSNQEIKNAYRRMAKKYHPDKVAHLGVEHQKGAEEKFKKVQEAYILIKKRRG” as the sequence, how does the “soluble fraction (log2)” value read?
**A.** Its value is -0.557.
